{"source": "paper PMC2756985", "about": "(Biochemistry, 2009)", "molecules": {"B1": {"name": "DevS: full length wild-type heme sensor kinase DevS of Mycobacterium tuberculosis (protein, UniProt P9WGK3 1-578, looked up)", "chain": "MTTGGLVDENDGAAMRPLRHTLSQLRLHELLVEVQDRVEQIVEGRDRLDGLVEAMLVVTAGLDLEATLRAIVHSATSLVDARYGAMEVHDRQHRVLHFVYEGIDEETVRRIGHLPKGLGVIGLLIEDPKPLRLDDVSAHPASIGFPPYHPPMRTFLGVPVRVRDESFGTLYLTDKTNGQPFSDDDEVLVQALAAAAGIAVANARLYQQAKARQSWIEATRDIATELLSGTEPATVFRLVAAEALKLTAADAALVAVPVDEDMPAADVGELLVIETVGSAVASIVGRTIPVAGAVLREVFVNGIPRRVDRVDLEGLDELADAGPALLLPLRARGTVAGVVVVLSQGGPGAFTDEQLEMMAAFADQAALAWQLATSQRRMRELDVLTDRDRIARDLHDHVIQRLFAIGLALQGAVPHERNPEVQQRLSDVVDDLQDVIQEIRTTIYDLHGASQGITRLRQRIDAAVAQFADSGLRTSVQFVGPLSVVDSALADQAEAVVREAVSNAVRHAKASTLTVRVKVDDDLCIEVTDNGRGLPDEFTGSGLTNLRQRAEQAGGEFTLASVPGASGTVLRWSAPLSQ", "modifications": "full-length"}}, "assay": "Oxygen dissociation rates of DevS proteins, stopped flow", "format": "binding, Mycobacterium tuberculosis"}
{"molecule": "B1", "values": [{"measurement": "O2 koff", "result": "6.79 ± 0.33 ^b s^−1"}]}
